# Reference: article PMC6053543
# Molecular target: β1 wild-type cytoplasmic tail peptide
# Assay: pull-down
substance,measurement,value
"recombinant full length talin-1, P26039 1-2541",fold more talin pulled down with equal molar FL-Kank2 than with GST only,5 fold
same,fold more talin pulled down with equal molar GST-KN than with GST only,5 fold
